Legend:
[1] = tested on: SETD3 variants (WT, N255A, N255V); assay: Comparison of activities of SETD3 variants (Fig. 3a, c); format: biochemical, human; conditions: Fig. 3c, K73(66–88), pH 10.5, 37 °C
Procedure: (§1) Fig. 3 Kinetics of SETD3 on H73 and K73 peptides. a Comparison of activities of three variants (WT, N255A, and N255V) on H73(66–80) peptide. The assays were performed at room temperature (~22 °C) and pH 8.0 using [WT] = 0.18 μM, [N255A] = 0.18 μM, and [N255V] = 0.72 μM. b Comparison of SETD3 WT activities on two K73 peptides (residues 66–80 and 66–88). The assays were performed at 37 °C and pH 10.5 using [WT] = 3 and 15 μM, respectively, for the long and short peptides. c Comparison of activities of three variants (N255A, N255V, and WT) on K73(66–88) peptide. The assays were performed at 37 °C and pH 10.5 using [N255A] = 90 nM, [N255V] = 0.72 μM and [WT] = 4 μM. Data represent the mean ± SD of N number of independent determinations (N = 3 for the WT and N = 2 for the mutants) performed in duplicate. […]
(§2) Recombinant human SETD3 (pXC2003) was expressed as a GST-fusion[22] in Escherichia coli BL21(DE3) CodonPlus^TM cells (Stratagene). […]
(§3) A reaction mixture contained 20 mM Tris/HCl (pH 8.0) or 20 mM glycine/NaOH (pH 10.5), 50 mM NaCl, 0.1 mg/ml BSA, 1 mM DTT, 0.18–15 µM SETD3 (as indicated in Fig. 3), 40 µM SAM and varying concentration of peptides. […] The dependence of the velocity of product formation per enzyme on substrate concentration was analyzed according to the Michaelis–Menten equation.

SETD3 N255A [2] = molecular target: T1, SETD3 N255A (Homo sapiens, UniProt Q86TU7, N256A); assay: Steady-state kinetics of SETD3 N255A on K73(66–88) (Fig. 3c; pH 10.5, 37 °C, [N255A] = 90 nM, 40 µM SAM); format: biochemical; conditions: relative to WT SETD3, Fig. 3c
T1 construct: GST (cleaved yes); made in house; host or cells: Escherichia coli BL21(DE3) CodonPlus
T1 sequence (Q86TU7 1-594 N256A): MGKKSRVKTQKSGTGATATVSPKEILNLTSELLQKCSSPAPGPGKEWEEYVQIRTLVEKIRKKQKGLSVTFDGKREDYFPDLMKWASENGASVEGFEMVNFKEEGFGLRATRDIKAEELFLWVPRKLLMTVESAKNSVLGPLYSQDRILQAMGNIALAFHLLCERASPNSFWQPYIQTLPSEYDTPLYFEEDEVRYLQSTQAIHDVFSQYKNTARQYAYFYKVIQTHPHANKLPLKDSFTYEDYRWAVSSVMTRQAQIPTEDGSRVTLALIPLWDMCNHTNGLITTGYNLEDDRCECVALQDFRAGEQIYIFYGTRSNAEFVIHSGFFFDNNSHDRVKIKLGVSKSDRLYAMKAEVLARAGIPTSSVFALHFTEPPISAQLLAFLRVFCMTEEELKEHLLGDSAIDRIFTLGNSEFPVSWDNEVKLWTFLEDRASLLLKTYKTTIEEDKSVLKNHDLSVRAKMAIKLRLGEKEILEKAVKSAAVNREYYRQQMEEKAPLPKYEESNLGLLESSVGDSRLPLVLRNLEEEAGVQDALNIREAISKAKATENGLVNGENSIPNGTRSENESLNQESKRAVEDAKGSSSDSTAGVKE
Procedure: as §1, §2, §3

SETD3 N255A [3] = molecular target: T1, SETD3 N255A; assay: MALDI-TOF analysis of K73(66–88) methylation by N255A (Fig. 3d); format: biochemical; conditions: pH 10.5, 37 °C, 3 μM N255A, 10 µM peptide, 40 µM SAM
Procedure: Fig. 3 Kinetics of SETD3 on H73 and K73 peptides. a Comparison of activities of three variants (WT, N255A, and N255V) on H73(66–80) peptide. The assays were performed at room temperature (~22 °C) and pH 8.0 using [WT] = 0.18 μM, [N255A] = 0.18 μM, and [N255V] = 0.72 μM. b Comparison of SETD3 WT activities on two K73 peptides (residues 66–80 and 66–88). The assays were performed at 37 °C and pH 10.5 using [WT] = 3 and 15 μM, respectively, for the long and short peptides. c Comparison of activities of three variants (N255A, N255V, and WT) on K73(66–88) peptide. The assays were performed at 37 °C and pH 10.5 using [N255A] = 90 nM, [N255V] = 0.72 μM and [WT] = 4 μM. Data represent the mean ± SD of N number of independent determinations (N = 3 for the WT and N = 2 for the mutants) performed in duplicate. Source data are provided as a Source Data file. d, e Mass spectrometry analysis of K73(66–88) methylation kinetic showing representative spectra at various time points for N255A variant (panel d) and SETD3 WT enzyme (panel e). The assays were performed at 37 °C and pH 10.5 using 3 μM for both N255A and WT. f In vitro methylation reactions with SETD3, indicated full-length actin proteins, and radiolabeled methyl donor (^3H-SAM). Right, Reactions were resolved by SDS–PAGE and activity was visualized by autoradiography. […] The first column head is 'SETD3', and the substrate peptide is printed only on the plot axis. / Panel b: the first column head is 'SETD3 (WT)', and the rows are K73 peptide substrates.
as §2
Actin K73 peptide (residues 66–88) was used as a substrate for SETD3 (Fig. 3d, e). […] We note that samples diluted into a 0.1% (v/v) TFA solution in water could not be detected by MALDI-TOF, thus the acetonitrile additive is necessary.

Which “order of activity of SETD3 variants on K73” value [1] does the source give for “K73(66–88): K73-containing actin H73K peptide, residues 66–88 (TLKYPIEKGIVTNWDDMEKIWHH; UniProt P60709 66-88, looked up, variant H73K)” here?
Its value is “N255A≫N255V>WT”.

And the “activity of N255A on K73 peptide” value (SETD3 N255A [2])?
Its value is “significantly enhanced activity”.

And the K73 methylation product (SETD3 N255A [3]; 10 min)?
Its K73 methylation product is “monomethyl lysine”.

And the K73 methylation product (SETD3 N255A [3]; 30 min)?
Its K73 methylation product is “dimethyl”.

What about the K73 methylation product (SETD3 N255A [3]; 1 h) of the same substance?
Its K73 methylation product is “complete conversion of unmodified substrate to trimethyl lysine”.
